# Test system: MS2 coat protein
# Experiment: apparent KD of MS2 coat protein; designed switch direction (-1 OFF switch, 1 ON switch): -1; higher = weaker reporter binding
# Procedure, shortened: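 RNA switches sharing common flanks were transcribed by stalled E. coli RNA polymerase on Illumina chips. A doubling series of SNAP-549-labelled MS2 coat protein, from 0.7 or 1.5 nM to 3 µM, was applied in Tris-HCl pH 7.5 buffer with KCl, MgCl2, BSA, DTT, tRNA and Tween-20. Each step lasted 0.8–1.5 h at the bottom of the series and 10–20 min at the top. Normalised cluster fluorescence was curve-fitted, giving apparent KD as the per-design median over clusters.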
# [1] = Eterna round: R95, input ligand: FMN 200 uM
# [2] = Eterna round: R95, input ligand: microRNA oligo, concentration not stated
# [3] = Eterna round: R95, input ligand: none
# [4] = input ligand: microRNA oligo, concentration not stated
Sequence,apparent KD of MS2 coat protein (input ligand: FMN 200 uM) [nM],apparent KD of MS2 coat protein (input ligand: none) [nM],apparent KD of MS2 coat protein [1] [nM],apparent KD of MS2 coat protein [2] [nM],apparent KD of MS2 coat protein [3] [nM],apparent KD of MS2 coat protein [4] [nM]
"UAUUAGCAAGCGAGAUCCCACAUGAGGAUCACCCAUGUAAUAAGCAUCCAGAAUUACUGGGUGCAAGCUCGUCUUAU [Winner reversed engineered 10] (Eterna round: R97, puzzle: Sensor, turn-off variant 1)",45.4,42.9,,,,
GGUGAGCGAGGAUAUACAUGAGGAUCACCCAUGUGAGAGAAUAAAGUGAGGAAGAAAAGUAGAAGGCGCGAACG [Mat - Exclusion 3 - Mod of Salish D47] (puzzle: Exclusion 3),,,91.4,37.8,11.9,
GGUUGGCGAGGAUAUACAUGAGGAUCACCCAUGUGAGAUAAAAAAGUGAGGAAGAAAAGUAGAAGGCGCUGACG [salish99_ex3_r3_010] (puzzle: Exclusion 3),,,1140,71.5,85.1,
CGUACUAAAGUCAGGAUAUUGUCUCGGAUACGAAACAAGAAGGGACAUGAGGAUCACCCAUGUAGAUAGUACGA [Malc #30 mod 5] (puzzle: Brourd's mod of Exclusion 4),,,16.9,23.4,26.6,
GUGUAGACAGGAUAUGCUUUGAGCGUAUGAGAGUAGGCUCGACAUGAGGAUCACCCAUGUAGAAGGGUCUACAC [LRO-Excl2-03] (puzzle: Exclusion 2),,,,10.1,,
AAAAAGCGAGGAUAUGCAUAAGGACCCGGGAGGGAAGUCGAACAUGAGGAUCACCCAUGUAGAAGGCGCAAAAA [Exclss2-IV] (puzzle: Exclusion 2),,,16,11.5,15.4,
UCGGCGCGAGGAUAUACGGUUGCUUGGUAGGGUCGUGGCGUACAUGAGGAUCACCCAUGUAGAAGGCGCGCCGC [Apr-15 SS2-31] (puzzle: Exclusion 2),,,,15.9,,
"GGUACUCAAAGAGUACCAAUACGAACAUGAGGAUCACCCAUGUAGGAUAUGCUACUCAAAGAGUAGCAGAAGGAUAUGAGCCUC [Far Half Aptamer v11] (Eterna round: R96, puzzle: Exclusion NG 3)",663,334,,,,319
"CUGGGUCGUGUUAGGAUAUGCUCUAGAAAGUUAGGGUAGAAGGAACAUGAGGAUCACCCAUGUGACUUCACUAG [BmEX4 B.27] (Eterna round: R97, puzzle: Brourd's mod of Exclusion 4)",23.6,15.4,,,,
"CCUCAGUGAGGAUAUCAGUAAUGUAAGACGUACAGUCGCACUGAGAAGGUACAUGAGGAUCACCCAUGUUAGUU [Eternabot (L1) Solution 50] (Eterna round: R97, puzzle: Exclusion 4)",31.3,23,,,,
"GUCAGACGAGGAUAUAGAUUUAGAUACAUGAGGAUCACCCAUGUAUAGAUGUAUUUAGAUUUAGAAGGCGUCUGAC [E5/13-A3] (Eterna round: R97, puzzle: Exclusion 5)",231,201,,,,
CUAGUCCGAGGAUAUAUUAUGUGAAACAUGAGGAUCACCCAUGUUAUAUGAUGGAUGAAAAUAGAAGGCGGACUAG [Mat - Exclusion 5 - JL mod - D61] (puzzle: Exclusion 5),,,20.4,72.8,88.1,
"CCAAGUCCAUAGGAUAUCGACCAGUCCUCUGGAUGAGAAGGAUGAACUUGAGGAUCACCCAAGUGGCCUAAUAC [Eddilesove] (Eterna round: R97, puzzle: Exclusion 6)",50.1,23.9,,,,
"AUAAGCUUUUAUAUCCUUAACAUGAGGAUCACCCAUGUUCGUCUUAUGAUGGUCUGAUCCCUGAGGAUCGGACCGUU [JL-sv1-2.04 Brourd Mod] (puzzle: Sensor v3, turn-off variant 1)",,,31,76.5,29.9,
"UAAAAUUCGCGAGGAUAUGCGACCUAAUGGGAGGAUUGUCACAUGAGGAUCACCCAUGUCAGUCAGCAGAAGGCGCACCUGGUU [Anedmaon] (Eterna round: R96, puzzle: Exclusion NG 2)",628,99.6,,,,116
"UCCAAGCGGAAGCAAUGAAACAUGAGGAUCACCCAUGUCCCGGUGGUCAUUCACCCAAGCUUUUUGUAGUCAACCUU [Eternabot (L1) Solution 42] (Eterna round: R97, puzzle: Sensor, turn-off variant 1)",249,297,,,,
"AACAAGCUUUUAAGAUGAAAGAUAGUAGGUAGCUCCUUUACAUGAGGAUCACCCAUGUUUGUGUAGCUCGAUCUUAU [JR_SV3TOV2_Sub076] (puzzle: Sensor v3, turn-off variant 2)",,,12.3,37.4,11.5,
AUGAGACAUGAGGAUCACCCAUGUGAGGAUAUGUAUGGAUGGUGGAAAGAAUGAGAGAACAGAAGGCACGUAGA [JR_Exclu1_Sub062] (puzzle: Exclusion 1),,,122,109,231,
"AGUUGGCGAGGAUAUACAUGAGGAUCACCCAUGUGUGAGAUAUAAGUGAGGUAAAUAUGUAGAAGGCGCUGACA [JR_Ex3_Sub079] (Eterna round: R97, puzzle: Exclusion 3)",18.4,425,,,,
UUUCAACAUGAGGAUCACCCAUGUGAGGAUAUGAUGCAGCAGUGGUCUACGCUGUGCAUCAGAAGGCACAUGUG (puzzle: Exclusion 1),,,,130,,
"UUAAAUCAUGUAGGAUAUGCGUGGCGAAGCUAUGCAGAAGGACAUGAGGAUCACCCAUGUGCUGCGGUCUGCGUACAGAUCGCA [JL ENG1 1.06] (Eterna round: R96, puzzle: Exclusion NG 1)",87.6,307,,,,259
"GGGUGACAUGAGGAUCACCCAUGUCAGGAUAUGAUUCUGCUUGGGAAACCGAGUAGAAUCAGAAGGGACAUCCC (Eterna round: R97, puzzle: Exclusion 1)",324,54.3,,,,
ACAGUGCGAGGAUAUACAUGAGGAUCACCCAUGUGAGAGAAAUAAGUGAGGAAGAAAAGUAGAAGGCGCGUUGA [Mat - Exclusion 3 - Mod of Salish D70] (puzzle: Exclusion 3),,,,45.8,,
"GUCGUGCGGCUUUGCUGUGCGGGUGCAUGAGGAUCACCCAUGUAGGAUAUGGUACGCUUUGCGUGCCAGAAGGGCGUGCGUUGG [salish99_ExNG3_r04_009] (Eterna round: R96, puzzle: Exclusion NG 3)",154,110,,,,114
CCUCUACAUGAGGAUCACCCAUGUGAGGAUAUCUCGGAGCAGCCAAUUAAAGCGCUCCAGAGAAGGCACGUGUA [Inesraar] (puzzle: Exclusion 1),,,,19.4,,
GUGAAACAUGAGGAUCACCCAUGUGAGGAUAUGUUUUAGUACUGCAGACAGUACAUCUAUAGAAGGCACAAUGG [Mat - Mod of JL D74] (puzzle: Exclusion 1),,,,37,,
AACUCACAUGAGGAUCACCCAUGUGAGGAUAUGAUACUAUGUACUUCGGUACAUAGUAUCAGAAGGCAUGUGGG [Ex1-3: 94] (puzzle: Exclusion 1),,,,49.7,,

# From the supplement of paper PMC9170038
